The values below come from US20110059095A1 (Regeneron, published 2011).

Where no end group is shown, it is not given here. The star is where a group is joined. Biotin = O=C1N[C@H]2[C@H](CS[C@H]2CCCCC(=O)*)N1 Some results are limits rather than exact numbers.

The target in assay [1] is T1, Peptide C (human PAR-2), N-terminal biotinylated (Human).
T1 construct: also called Peptide C N-Term
T1 peptide: Biotin-GGGGSSLIGKV
Briefly: SPR, peptide immobilized. (In SPR one partner is held on a chip, and binding of the other changes the refractive index at the surface.)

Assay [2] addresses T2, Peptide E (mouse PAR-2), unbiotinylated (Mouse (Mus musculus)).
T2 construct: also called Peptide E No Biotin
T2 peptide: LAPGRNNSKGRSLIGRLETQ
The experiment in a line: peptide ELISA titration; ELISA titration, bivalent IgG on peptide-coated plate. The protocol:
Anti-PAR-2 antibodies were tested for their ability to bind to the PAR-2 peptides. Various PAR-2 Peptides (Table 3) were coated onto 96-well plates at a concentration of 2 μg/ml and incubated overnight followed by blocking in a suitable blocking agent for one hour. […] Purified anti-PAR-2 antibodies were added to the plate coated with PAR-2 peptides to a final concentration ranging from 0.2 to 2.0 μg/ml and incubated for one hour at room temperature. Detection of bound antibodies was determined with Horse-Radish Peroxidase (HRP) conjugated anti-mouse or human IgG (Jackson Immuno Research Lab, West Grove, Pa.) and developed by standard colorimetric response using tetramethylbenzidine (TMB) substrate. Absorbance was read at OD₄₅₀ for 0.1 second.
In another experiment, selected anti-PAR-2 antibodies cloned onto human IgG4 were tested for binding to unbiotinylated and biotinylated forms of PAR-2 peptides (Peptides A, E, F and G; as described above). […] Absorbance values at 450 nm were analyzed using a sigmoidal dose-response model in GraphPad Prism (GraphPad Software, Inc., La Jolla, Calif.) and EC₅₀ values were reported (Table 9). EC₅₀ values are defined as the antibody concentration required to achieve 50% maximal binding to PAR-2 peptide.
On the technique in general: In an ELISA, binding on a coated surface is turned into a signal by an enzyme label.

Another assay addresses T3, Peptide H (rabbit PAR-2) (Rabbit (Oryctolagus cuniculus)).
T3 peptide: GTNKTSKGRSLIGRNTGS
Briefly: SPR, antibody captured.

Another assay addresses T4, Peptide I (dog PAR-2) (Dog (Canis familiaris)).
T4 peptide: GTNRTSKGRSLIGKTDSS
The experiment in a line: SPR, antibody captured.

Assay [3] addresses T5, Peptide G (rat PAR-2), unbiotinylated (Rat (Rattus norvegicus)).
T5 construct: also called Peptide G No Biotin
T5 peptide: GPNSKGRSLIGRLDTP
The experiment in a line: SPR, antibody captured.

Assay [4] deals with T6, C-terminal biotinylated human PAR-2 peptide SEQ ID NO:873 (Arg-36 to Ala) (human, not fully specified; C-terminal biotin (K-B)).
T6 construct: alanine-scan mutant
T6 peptide: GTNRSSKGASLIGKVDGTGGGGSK
The experiment in a line: BLI Exp1. The protocol: (§1) In order to more particularly identify the amino acids of PAR-2 with which the PAR-2 antibodies interact, an alanine scanning study was carried out using peptides comprising the activating PAR-2 protease cleavage site.
(§2) The ability of each peptide mutant to bind to PAR-2 antibodies was measured using biolayer interferometry (Octet Red; ForteBio). Each peptide (2.5 μg/ml) was captured on streptavidin coated biosensor tips (Octet SA sensor) for 10 seconds. To measure binding and dissociation between each peptide and PAR-2 antibody, the peptide-coated biosensors were contacted with 200 nM solutions of PAR-2 antibodies for 5 minutes (binding) followed by transfer to buffer with no antibody for 10 min (dissociation). […] The results are expressed as percent binding and percent T_{1/2} relative to WT peptide (Tables 24-28).

Assay [5] concerns the target T7, C-terminal biotinylated human PAR-2 peptide SEQ ID NO:880 (Asp-43 to Ala) (human, not fully specified; C-terminal biotin (K-B)).
T7 construct: alanine-scan mutant
T7 peptide: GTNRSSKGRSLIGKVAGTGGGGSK
Briefly: BLI Exp1. How it is done:
as §1, §2

The target of assay [6] is T8, C-terminal biotinylated human PAR-2 peptide SEQ ID NO:876 (Ile-39 to Ala) (human, not fully specified; C-terminal biotin (K-B)).
T8 construct: alanine-scan mutant
T8 peptide: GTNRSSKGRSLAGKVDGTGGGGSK
The experiment in a line: BLI Exp1. How it is done:
as §1, §2

The target of assay [7] is T9, Peptide G (rat PAR-2), N-terminal biotinylated (Rat (Rattus norvegicus), N-terminal biotin via G4S linker).
T9 construct: also called Peptide G N-Term
T9 peptide: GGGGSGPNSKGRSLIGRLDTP
Briefly: SPR, peptide immobilized.

Assay [8] deals with T10, Peptide E (mouse PAR-2), N-terminal biotinylated (Mouse (Mus musculus), N-terminal biotin via G4S linker).
T10 construct: also called Peptide E N-Term
T10 peptide: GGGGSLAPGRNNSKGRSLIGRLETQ
Briefly: SPR, peptide immobilized.

In assay [9] the target is T11, Peptide A (human PAR-2), unbiotinylated (Human).
T11 construct: also called Peptide A No Biotin
T11 peptide: GTNRSSKGRSLIGKVDGT
The experiment in a line: SPR, antibody captured.

Assay [10] deals with T5, Peptide G (rat PAR-2), unbiotinylated. Briefly: peptide ELISA titration.
The target in assay [11] is T9, Peptide G (rat PAR-2), N-terminal …. Briefly: peptide ELISA titration.
For assay [12], the target named is T12, Peptide G (rat PAR-2), C-terminal biotinylated (Rat (Rattus norvegicus), C-terminal biotin via G4S linker).
T12 construct: also called Peptide G C-Term
T12 peptide: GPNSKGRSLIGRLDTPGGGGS
The experiment in a line: peptide ELISA titration.

The target of assay [13] is T10, Peptide E (mouse PAR-2), N-terminal …. The experiment in a line: peptide ELISA titration.

B1: H4H581P (antibody, human IgG4, V domains shown)
VH: QVQLVESGGGVVQPGRSLRLSCVASGFTFSRYGIHWVRQAPGKGLEWVIVISYDGINKYYADSVKGRFTISRDNSKNTVYLQMNSLRAEDTAVYYCAKGDFWSGYFDYWGQGTLVTVSS
VL: DIVMTQTPLSSPVTLGQPASISCRSSQSLVHSDGNTYLSWLHQRPGQPPRLLIYKISNRFSGVPDRFSGSGAGTDFTLQISRVEAEDVGIYYCMQATQFPTFGGGTKVEIK
notes: also called mAb H4H581P; H1H581P variable regions
For the molecule B1, the Kd (commonly the free concentration of one partner at which half of the binding sites on the other are occupied at equilibrium, for simple one-to-one binding) in [1] is > 100 nM; with Peptide I (dog PAR-2) it was 143 nM; in assay [3], 40.2 nM; in [7], 0.354 nM; in [8], 1.13 nM; in assay [9], 9.44 nM. Besides, the EC50 (as a rule, the concentration that produces a half-maximal response) was 0.029 nM in [2]; 0.02 nM in assay [10]; 0.019 nM in assay [11]; 0.013 nM in [12]; 0.032 nM in assay [13]. For the same molecule, the binding result with Peptide H (rabbit PAR-2) is given as “no binding”. Also, the T1/2 amounted to 0.07 min with Peptide I (dog PAR-2); 0.63 min in assay [3]; 62 min in assay [7]; 21 min in assay [8]; 1.4 min in assay [9]. In addition, the results for the “% Rel Binding” value in assay [4], in [5] and in assay [6] were 87%, 18% and 8%, respectively. The “% Rel T1/2” value was determined as 122% in assay [4], 36% in assay [5] and 0.2% in assay [6].
